The values below come from patent publication US20180346562A1 (ANAPTYSBIO, published 2018).

Assay [1] has as its target T1, human IL-33 (human, UniProt O95760 112-270, limits assumed).
T1 sequence (looked up): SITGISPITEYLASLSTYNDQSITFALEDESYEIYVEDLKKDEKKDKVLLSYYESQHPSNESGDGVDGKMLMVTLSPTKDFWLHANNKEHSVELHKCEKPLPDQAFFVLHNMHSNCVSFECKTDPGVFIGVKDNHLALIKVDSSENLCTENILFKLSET
As to the kind of experiment: cell-based or functional assay.

The target of assay [2] is T1, human IL-33. As to the kind of experiment: KinExA, solution equilibrium, beads coated with histidine-tagged human IL-33. As for the experimental part:
(§1) The ability of the APE4909 antibody described in Example 2 to interact with IL-33 was analyzed biophysically using a KINEXA™ 3200 biosensor platform from Sapidyne Instruments (Boise, Id.). Binding experiments for human and cynomolgus IL-33 (cynolL-33) were conducted as described below and were run twice independently. Conditions for the first experiment are shown non-parenthetically, while conditions for the second experiment are provided parenthetically.
Solid phase was prepared using azlactone-coated beads coated using a 50 μg/mL solution of histidine-tagged human IL-33. Binding experiments were performed in 1×PBS pH 7.4, 0.1% BSA. The APE4909 antibody at 10 pM (or 20 pM) final concentration was incubated with IL-33 at 200 pM to 3.4 fM (or 400 pM to 6.7 fM) final concentrations for 3 (or 4) days at 4° C. 5 mL (or 10 mL) of each mixture was applied to the beads coated with IL-33 at a rate of 0.25 mL/min for 1200 seconds (or 2400 seconds). Free antibody was detected with an ALEXAFLUOR™ 647-(Life Technologies, Carlsbad, Calif.) labeled donkey anti-human antibody. All data fit using standard KINEXA™ software.

The target of a further assay is T2, cynomolgus IL-33 (cynomolgus, UniProt A0A2K5W3I1 112-269).
T2 construct: also called cynoIL-33; cIL-33
T2 sequence: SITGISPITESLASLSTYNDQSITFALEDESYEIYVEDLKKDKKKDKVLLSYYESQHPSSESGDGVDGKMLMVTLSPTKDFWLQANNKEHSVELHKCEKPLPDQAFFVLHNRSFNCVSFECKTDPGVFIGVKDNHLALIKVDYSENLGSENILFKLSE
The assay is described as follows: KinExA solution-phase equilibrium titration: APE4909 at a fixed concentration incubated with cynomolgus IL-33 as titrant, free antibody captured on cIL-33-coated beads. As for the experimental part:
as §1
Solid phase was prepared using azlactone-coated beads coated using a 50 μg/mL solution of histidine-tagged human IL-33. Binding experiments were performed in 1×PBS pH 7.4, 0.1% BSA. The APE4909 antibody at 10 pM (or 20 pM) final concentration was incubated with IL-33 at 200 pM to 3.4 fM (or 400 pM to 6.7 fM) final concentrations for 3 (or 4) days at 4° C. […] Free antibody was detected with an ALEXAFLUOR™ 647-(Life Technologies, Carlsbad, Calif.) labeled donkey anti-human antibody. […]
Experiments were performed as described above for human IL-33, except that the APE4909 antibody at 20 pM and 100 pM final concentration was incubated with cIL-33 at 3 nM to 315 fM final concentrations for 24 hours at 4° C. […] Free antibody was detected with an ALEXAFLUOR™ 647-(Life Technologies, Carlsbad, Calif.) labeled donkey anti-human antibody. […]

Turning to “monomeric human ST2 protein (APE3906) (from UniProt Q01638 19-328) (receptor)”, in the assay with human IL-33 [1], the IC50 of inhibition of IL-33-mediated release of IL-5 in primary human basophils came to 20 nM.

B1: APE4909 antibody (antibody, V domains shown)
VH: QVQLMQSGAEVKKPGASVKVSCKASGYTFTSYWMHWVRQAPGQGLEWMGTIYPRNSNTDYNQKFKARVTMTRDTSTSTVYMELSSLRSEDTAVYYCARPLYYYLTSPPTLFWGQGTLVTVSS
VL: DIQLTQSPSFLSASVGDRVTITCKASQDVGTAVAWYQQKPGKAPKLLIYWASTRHTGVPSRFSGSGSGTEFTLTISSLQPEDFATYYCQQAKTYPFTFGSGTKLEIKR
notes: the claims treat these entries as variable regions; It was detected with an anti-human antibody; also called APE04909; APE4909.02 (lot suffix)
As usually defined, the Kd is the equilibrium constant for the complex coming apart. As to B1, in the assay with human IL-33 [1], the “IC50 of inhibition of IL-33-mediated release of IL-5 in primary human basophils” value is 2.2 nM. Further, the “IC50 of inhibition of IL-33-mediated release of IL-9 from primary human basophils” value with human IL-33 [1] came out at 3 nM. For the same molecule, the Kd was 0.001 nM in the assay with human IL-33 [2] and 0.035 nM with cynomolgus IL-33.
